US12072338B2, “Pharmaceutical peptides for the treatment of inflammatory diseases” (PROTAGONISTS LTD., priority 2007, dated 2024)

Assays:
[1] = target: T1, GRO-β (Homo sapiens, UniProt P19875); experiment: Micro-array analysis of chemokine binding peptides: GRO-β
T1 construct: purchased 300-39
T1 sequence (P19875 35-107): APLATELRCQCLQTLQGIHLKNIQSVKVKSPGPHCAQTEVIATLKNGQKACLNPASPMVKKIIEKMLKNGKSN
Procedure: (§1) (1) Printing: Chemokine (CK) solution (in water) was serially diluted with Print Reagent (GenTel BioSurfaces USA) to final concentrations of 50 μg and 25 μg/ml. BSA/BSA-Biotin control solutions (in water) were diluted with Print Reagent to 100 μg/ml. Amplified stock of M13 phage control (M13KEgIII Cloning Vector, New England Biolabs, Cat.No.E8101S) was stored in Tris Buffered Saline (TBS; pH7.5, 4° C.) and diluted with Print Reagent to the working titre (10^8 pfu/μl). An automated spotting robot (16 pin print tool, 0.4 mm head; BioRobotics, UK) was used to print the CK/BSA control/M13 control, 5 repeats per sample (CK 25 μg/ml and 50 μg/ml; BSA 100 μg/ml; M13 20 μl), on PATH Protein Microarray Slides (GenTel, Prod.No. 2-1005/-1025) at […], and 50-70% relative humidity. Printed micro-array slides were stored at Room Temperature (RT) or 4° C. for at least 24 h before use.
(§2) (2) Blocking: Block Buffer (500 μl/partition; PATHblock, GenTel, Prod.No. 2-1014) was applied to the slide for 1 hour at room temp (RT). After removal of Block Buffer, the slide was air dried for 25 minutes;
(§3) (3) Phage Presented Peptide Binding: Amplified recombinant phage stock was stored in TBS and diluted with Wash Buffer to working titer (10^7 pfu/μl). Recombinant phage suspension (300 μl) was applied per partition and incubated at RT for 1 hour with gentle agitation.
(§4) (4) First Washing: The slides were washed twice with Wash Buffer 300 μl/partition).
(§5) (5) Primary Antibody (Ab) Labeling: The slides were incubated with the Primary Ab (1 mg/ml diluted ×2500 (Wash Reagent), 300 μl; Mouse Anti-M13 monoclonal Ab; Amersham Biosciences, UK; Product Code 27-9420-01) for 45 minutes at RT.
(§6) (6) Second Washing: The slides were washed twice with Wash Buffer (300 μl/partition).
(§7) (7) Secondary Ab Labeling: The slides were incubated with Secondary Ab (1.5 mg/ml diluted ×5000 (Wash Reagent), 300 μl; Cy3-conjugated AffiniPure Goat Anti-Mouse IgG; Jackson ImmunoReserch Labs, USA; Product Code 115-165-062).
(§8) (8) Third Washing: The slides were washed twice with Wash Buffer (300 μl/partition).
(§9) (9) Rinse: the slides were rinsed twice with Rinse Buffer (PATHrinse, GenTel, Prod.No. 2-1018) then dried well.
(§10) (10) Scanning: The peptide-bound, labeled slide was scanned (Laser Intensity 80%, Gain 80%, Resolution 10 μm) with a ScanArray Life Scanner (Packard BioChip Technologies, USA).
(§11) (11) Analysis: Quantitative analysis of micro-array was performed by the SpotReader program of Niles Scientific (USA) and presented as Relative Fluorescence (RF) as a function of CK concentration. Micro-array readout (Cy3 fluorescence) was quantified to determine the relative binding affinities of a CBP for the CKs and by inference, the specificity of the CBP for binding to a CK.

[2] = tested on: IL-8; experiment: Micro-array analysis of chemokine binding peptides: IL-8
Sequence of IL-8 (P10145 28-99 limits assumed): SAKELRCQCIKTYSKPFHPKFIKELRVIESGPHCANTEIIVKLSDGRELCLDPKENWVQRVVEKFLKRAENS
Outline: (§12)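 Chemokines were printed at 25 and 50 μg/ml (final, in print reagent) on protein microarray slides, blocked, then exposed to recombinant peptide-displaying phage at 10^7 pfu/μl for 1 h at RT. Bound phage was detected with mouse anti-M13 mAb and Cy3 goat anti-mouse IgG; values are relative Cy3 fluorescence.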

[3] = target: T2, Mig (Homo sapiens, UniProt Q07325); experiment: Micro-array analysis of chemokine binding peptides: Mig
T2 construct: purchased 300-26
T2 sequence (Q07325 23-125): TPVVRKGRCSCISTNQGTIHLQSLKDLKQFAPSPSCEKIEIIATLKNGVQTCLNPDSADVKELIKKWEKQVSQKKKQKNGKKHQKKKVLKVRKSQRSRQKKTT
Outline: as §12

[4] = target: T3, I-TAC (Homo sapiens, UniProt O14625); experiment: Micro-array analysis of chemokine binding peptides: I-TAC
T3 construct: purchased 300-46
T3 sequence (O14625 22-94): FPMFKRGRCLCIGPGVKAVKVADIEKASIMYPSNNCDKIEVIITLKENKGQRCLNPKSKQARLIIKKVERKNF
Outline: as §12

[5] = target: T4, I-309 (Homo sapiens, UniProt P22362); experiment: Micro-array analysis of chemokine binding peptides: I-309
T4 construct: purchased 300-37
T4 sequence (P22362 24-96): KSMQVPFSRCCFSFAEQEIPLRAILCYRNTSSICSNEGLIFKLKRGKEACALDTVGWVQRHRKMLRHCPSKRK
Outline: as §12

[6] = target: T5, MCP-1 (Homo sapiens, UniProt P13500); experiment: Micro-array analysis of chemokine binding peptides: MCP-1
T5 construct: purchased 300-04
T5 sequence (P13500 24-99): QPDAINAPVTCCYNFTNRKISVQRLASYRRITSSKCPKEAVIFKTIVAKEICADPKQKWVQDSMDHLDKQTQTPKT
Procedure: as §1, §2, §3, §4, §5, §6, §7, §8, §9, §10, §11

[7] = target: T6, MCP-2 (Homo sapiens, UniProt P80075); experiment: Micro-array analysis of chemokine binding peptides: MCP-2
T6 construct: purchased 300-15
T6 sequence (P80075 24-99): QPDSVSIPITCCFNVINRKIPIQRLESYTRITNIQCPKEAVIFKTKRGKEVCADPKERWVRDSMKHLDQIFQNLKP
Outline: as §12

[8] = target: T7, MCP-4 (Homo sapiens, UniProt Q99616); experiment: Micro-array analysis of chemokine binding peptides: MCP-4; details: limit = start of the upper 75% of that peptide's response range
T7 construct: purchased 300-24
T7 sequence (Q99616 17-98): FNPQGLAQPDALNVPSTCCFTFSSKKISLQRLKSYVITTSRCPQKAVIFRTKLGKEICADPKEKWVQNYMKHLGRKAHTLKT
Outline: as §12

[9] = target: T8, RANTES (Homo sapiens, UniProt P13501); experiment: Micro-array analysis of chemokine binding peptides: RANTES; details: limit = start of the upper 75% of that peptide's response range
T8 construct: purchased 300-06
T8 sequence (P13501 24-91): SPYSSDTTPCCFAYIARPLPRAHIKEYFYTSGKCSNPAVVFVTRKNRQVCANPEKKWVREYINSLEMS
Outline: as §12

[10] = target: T9, Eotaxin (Homo sapiens, UniProt P51671); experiment: Micro-array analysis of chemokine binding peptides: Eotaxin
T9 construct: purchased 300-21
T9 sequence (P51671 24-97): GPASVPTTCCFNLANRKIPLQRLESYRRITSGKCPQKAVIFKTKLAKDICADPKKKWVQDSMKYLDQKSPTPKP
Outline: as §12

[11] = target: T10, Eotaxin 2 (Homo sapiens, UniProt O00175); experiment: Micro-array analysis of chemokine binding peptides: Eotaxin 2
T10 construct: purchased 300-33
T10 sequence (O00175 27-119): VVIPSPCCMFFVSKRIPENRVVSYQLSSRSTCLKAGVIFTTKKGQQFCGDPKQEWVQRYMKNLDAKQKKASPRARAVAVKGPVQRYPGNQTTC
Procedure: as §1, §2, §3, §4, §5, §6, §7, §8, §9, §10, §11

[12] = target: T11, Eotaxin 3 (Homo sapiens, UniProt Q9Y258); experiment: Micro-array analysis of chemokine binding peptides: Eotaxin 3
T11 construct: purchased 300-48
T11 sequence (Q9Y258 24-94): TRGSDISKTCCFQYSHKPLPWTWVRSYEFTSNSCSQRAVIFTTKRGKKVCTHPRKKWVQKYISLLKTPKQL
Outline: as §12

[13] = target: T12, BCA-1 (Homo sapiens, UniProt O43927); experiment: Micro-array analysis of chemokine binding peptides: BCA-1
T12 construct: purchased 300-47
T12 sequence (O43927 23-109): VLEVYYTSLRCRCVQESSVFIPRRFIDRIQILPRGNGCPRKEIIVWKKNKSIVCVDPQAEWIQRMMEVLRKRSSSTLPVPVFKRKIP
Outline: as §12

[14] = target: T13, TECK (Homo sapiens, UniProt O15444); experiment: Micro-array analysis of chemokine binding peptides: TECK
T13 construct: purchased 300-45
T13 sequence (O15444 24-150): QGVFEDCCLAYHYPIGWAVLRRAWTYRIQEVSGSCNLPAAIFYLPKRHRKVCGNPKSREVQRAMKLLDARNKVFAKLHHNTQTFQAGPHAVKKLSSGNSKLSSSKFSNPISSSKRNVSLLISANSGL
Outline: as §12

[15] = target: T14, Fractalkine (Homo sapiens, UniProt P78423); experiment: Micro-array analysis of chemokine binding peptides: Fractalkine
T14 construct: purchased 300-31
T14 sequence (P78423 25-100 limits assumed): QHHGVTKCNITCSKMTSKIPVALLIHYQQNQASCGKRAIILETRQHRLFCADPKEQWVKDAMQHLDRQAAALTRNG
Outline: as §12

[16] = target: T15, Lymphotactin (Homo sapiens, UniProt P47992); experiment: Micro-array analysis of chemokine binding peptides: Lymphotactin
T15 construct: purchased 300-20
T15 sequence (P47992 22-114): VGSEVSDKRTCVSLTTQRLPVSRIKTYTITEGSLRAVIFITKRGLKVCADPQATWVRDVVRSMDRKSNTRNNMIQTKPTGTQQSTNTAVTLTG
Outline: as §12

[17] = target: T16, MDC 69 (Homo sapiens, UniProt O00626); experiment: Micro-array analysis of chemokine binding peptides: MDC 69
T16 construct: MDC(69aa), (CCL22 cat.no.300-36A); purchased 300-36A
T16 sequence (O00626 25-93): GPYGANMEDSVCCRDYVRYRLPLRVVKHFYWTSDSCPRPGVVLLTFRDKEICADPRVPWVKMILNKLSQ
Procedure: as §1, §2, §3, §4
(5) Primary Antibody (Ab) Labeling: The slides were incubated with the Primary Ab (1 mg/ml diluted ×2500 (Wash Reagent), 300 μl; Mouse Anti-M13 monoclonal Ab; Amersham Biosciences, UK; Product Code 27-9420-01) for 45 minutes at RT. […]
as §11

HHTCSLHFP [Ph-p16]
binding to GRO-β, stated in words [1]: bound
binding to IL-8, stated in words [2]: bound
binding to Mig, stated in words [3]: bound
binding to I-TAC, stated in words [4]: bound
binding to I-309, stated in words [5]: bound
binding to MCP-1, stated in words [6]: bound
binding to MCP-2, stated in words [7]: bound
binding to MCP-4 with relatively high affinity (Relative Fluorescence Units) [8]: > 15,000 RFU
binding to RANTES with relatively high affinity (Relative Fluorescence Units) [9]: > 15,000 RFU
binding to Eotaxin, stated in words [10]: bound
binding to Eotaxin 2, stated in words [11]: bound
binding to Eotaxin 3, stated in words [12]: bound
binding to BCA-1, stated in words [13]: bound
binding to TECK, stated in words [14]: bound
binding to Fractalkine, stated in words [15]: bound
binding to Lymphotactin, stated in words [16]: bound
binding to MDC 69, stated in words [17]: bound
